Measurements published in patent US20230331852A1 (OSE IMMUNOTHERAPEUTICS, published 2023).

T1: human CLEC-1A expressed on the cell membrane (human, UniProt Q8NC01 1-280)
T1 construct: Endogenous on human U266 myeloma cells, on monocyte-derived TGFb-DC and macrophages; on CHO cells after transduction with a Clec-1 expressing lentivirus; also called U266 CLEC1; CLEC-1A on U266 cells
T1 sequence: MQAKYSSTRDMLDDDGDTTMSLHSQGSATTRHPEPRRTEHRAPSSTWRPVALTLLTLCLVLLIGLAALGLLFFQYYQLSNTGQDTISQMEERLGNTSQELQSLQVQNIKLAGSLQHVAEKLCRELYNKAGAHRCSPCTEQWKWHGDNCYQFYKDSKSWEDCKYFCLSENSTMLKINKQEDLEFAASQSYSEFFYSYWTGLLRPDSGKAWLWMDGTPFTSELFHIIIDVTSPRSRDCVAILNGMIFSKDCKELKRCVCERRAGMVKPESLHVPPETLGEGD

T2: recombinant human CLEC-1 protein with His Tag (#1704-CL R&D Systems) (human, UniProt Q8NC01 74-280)
T2 construct: Bought protein; also called His-CLEC1; His Clec-1; not shown: His tag
T2 sequence: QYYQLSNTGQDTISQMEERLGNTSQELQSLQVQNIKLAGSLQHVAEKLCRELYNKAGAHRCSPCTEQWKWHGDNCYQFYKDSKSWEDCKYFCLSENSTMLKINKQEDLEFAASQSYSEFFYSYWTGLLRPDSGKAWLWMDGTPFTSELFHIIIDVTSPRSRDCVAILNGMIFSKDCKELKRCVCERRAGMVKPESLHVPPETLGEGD

T3: Fc-CLEC1 labelled with Alexa Fluor 488 (human, Alexa Fluor 488 label (sites not given))
T3 construct: also called Fc-CLEC1-A488; Alexa488-Fc-Clec-1
T3 chain: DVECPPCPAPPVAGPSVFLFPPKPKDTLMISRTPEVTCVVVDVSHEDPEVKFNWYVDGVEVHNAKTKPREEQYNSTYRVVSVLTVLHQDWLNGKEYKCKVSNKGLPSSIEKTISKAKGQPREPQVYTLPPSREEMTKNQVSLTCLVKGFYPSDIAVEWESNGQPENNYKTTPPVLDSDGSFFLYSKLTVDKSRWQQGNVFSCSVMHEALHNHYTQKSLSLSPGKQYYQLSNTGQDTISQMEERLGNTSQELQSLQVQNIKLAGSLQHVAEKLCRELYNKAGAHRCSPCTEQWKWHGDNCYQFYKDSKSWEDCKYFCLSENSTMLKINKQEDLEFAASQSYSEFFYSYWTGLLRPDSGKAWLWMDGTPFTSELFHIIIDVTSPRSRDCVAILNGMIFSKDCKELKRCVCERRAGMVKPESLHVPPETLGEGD


Columns and labels:
[1] = biological target: T1, human CLEC-1A expressed on the cell …; assay: flow cytometry on U266 cells
Protocol: (§1) Method: To measure binding of anti-CLEC1 on human U266 cell lines (pre-blocked with Fcblock to blocking FcR), antibodies at different concentrations were incubated for 30 min at 4° C., and washed before stained 30 min at 4° C. with PE-labelled anti-human IgG (Biolegend; reference 409304). Samples were analyzed on Cytoflex cytofluorometer (Beckman Coulter). The MFI of anti-CLEC1 was compared between all anti-CLEC1 antibodies and percentage of stained cells was analysed in all conditions.

[2] = biological target: T2, recombinant human CLEC-1 protein with …; assay: ELISA on immobilised His-CLEC1 (from FIGURE 12)
Protocol: (§2) Method: The binding activity of the anti-hCLEC1 antibodies was assessed by ELISA (Enzyme-linked immunosorbent assay). […] A second ELISA assays was performed, like above, with immobilization of CLEC1-Fc (OSE Immunotherapeutics) at 2 μg/ml. A third ELISA assays was performed to see the cross-reactivity with mouse CLEC1. Like above, ELISA was made with immobilization of mouse Fc-CLEC1 (OSE Immunotherapeutics) at 2 μg/ml in carbonate buffer instead of His-Clec. Purified antibodies were added at different concentrations to measure binding. […] Control antibody is a commercial anti-CLEC-1A antibody.

[3] = biological target: T1, human CLEC-1A expressed on the cell …; assay: flow cytometry on CHO-Clec-1 cells (from FIGURE 21)
Protocol: (§3) To measure binding of anti-clec on CHO-Clec-1 cells, human Fc Receptor Binding Inhibitor diluted at 1/200 (BD pharmingen; USA; reference 564220) was first added for 30 min at room-temperature to block human Fc receptors on CHO-Clec-1 cells to reduce background. Then, antibodies were incubated for 30 min at 4° C., and washed before stained 15 min at 4° C. with PE-labelled anti-human IgG Fc (Biolegend; USA; reference 409303). Samples were analyzed on citoflex (Beckman coulter)

[4] = biological target: T2, recombinant human CLEC-1 protein with …; assay: ELISA on immobilised His-CLEC1, anti-human IgG peroxidase
[5] = biological target: T2, recombinant human CLEC-1 protein with …; assay: Blitz biolayer interferometry, His-CLEC1 on Ni-NTA biosensor, antibody at 20 ug/mL
[6] = biological target: T3, Fc-CLEC1 labelled with Alexa Fluor 488; assay: FACS competition: blocks Fc-CLEC1-A488 (10 nM) binding to CLEC-1 ligand on UV-treated PBMC
Protocol: (§4) Competition were also measured on UV pre-treated pro-apoptotic human PBMCs, which can also express the ligand after a treatment under UV radiation for 18 hours. After UV treatment, cells were first washed in cold-PSE and then blocked during 30 min at room temperature with human Fc-block 50-fold diluted in PSE, and then replaced on ice. Purified anti-Clec antibodies at different concentrations were pre-incubated with Alexa488-Fc-Clec-1 in PSE at different concentrations for 15 min at room temperature. Pre-incubated mixes were then incubated on Fc-blocked/SAB (#34005-100, Invitrogen, Illkirch, France) pro-apoptotic PBMCs for 30 min on ice. Binding on cells were then fixed by PFA 2% in cold PBS for 10 min on ice and analyzed on CytoFlex cytofluorometer (Beckman Coulter France, Villepinte).
(§5) Methods. To measure competition on permeabilised Raji (CytoFix/cytoperm kit, BD Biosciences) which expressed CLEC1 ligand, Fc-CLEC1-labelled A488 which bound specifically to permeabilised Raji was used. To measure competition, Fc-CLEC1 labelled A488 at 10 nM or 20 nM was mixed with mouse anti-hCLEC1 at different concentrations for 15 min at RT then added on these cells for 30 min at 4° C. […] To measure competition on PMBC, we used human PBMC pre-treated by UV for 18 h to obtain apoptotic PBMC, which expressed CLEC1 ligand. Fc-CLEC1-labelled A488 bound specifically apoptotic UV-treated PBMC. To measure competition, Fc-CLEC1 labelled A488 at 10 nM was mixed with mouse anti-hCLEC1 at different concentrations for 15 min at RT then added on these cells for 30 min at 4° C.

[7] = biological target: T3, Fc-CLEC1 labelled with Alexa Fluor 488; assay: FACS competition: blocks Fc-CLEC1-A488 (10 nM) binding to CLEC-1 ligand on UV-treated PBMC; % binding
Protocol: as §4, §5

[8] = biological target: T3, Fc-CLEC1 labelled with Alexa Fluor 488; assay: FACS competition: blocks Fc-CLEC1-A488 (10 nM) binding to CLEC-1 ligand on permeabilised Raji cells; IC50 median
Protocol: (§6) To measure competition, purified anti-Clec antibodies at different concentrations were pre-incubated in Perm Wash Buffer with Alexa488-Fc-Clec-1 for 15 min at room temperature. Pre-incubated mixes were then incubated on permeabilized and Fc-blocked Raji cells for 30 min on ice. Binding on cells were then fixed by PFA 2% in cold PBS for 10 min on ice and analyzed on CytoFlex cytofluorometer (Beckman Coulter France, Villepinte).
as §5

[9] = biological target: T2, recombinant human CLEC-1 protein with …; assay: ELISA on immobilised His-CLEC1 (from FIGURE 14)
Protocol: as §2

[10] = biological target: T1, human CLEC-1A expressed on the cell …; assay: flow cytometry on U266 cells, PE anti-human IgG; % positive cells
Protocol: as §1

[11] = biological target: T1, human CLEC-1A expressed on the cell …; assay: flow cytometry on U266 cells, PE anti-human IgG; median fluorescence
Protocol: as §1

[12] = biological target: T1, human CLEC-1A expressed on the cell …; assay: flow cytometry on CHO-Clec-1 cells, revealed with anti-hFc-PE; % positive cells
Protocol: as §3

[13] = biological target: T1, human CLEC-1A expressed on the cell …; assay: flow cytometry on CHO-Clec-1 cells, revealed with anti-hFc-PE; median fluorescence
Protocol: as §3

[14] = biological target: T2, recombinant human CLEC-1 protein with …; assay: BLI (Blitz), CLEC1-His on Ni-NTA biosensor, antibody at 20 ug/mL; chimeric antibody, FIG. 17
Protocol: Analysis was performed with a BLItz System (Fortébio, #C22-2 No 61010-1, Molecular Devices, San José, USA).
The affinity of the anti-hCLEC1 antibodies, was measured with Blitz system (Forté Bio, C22-2 No 61010-1).

[15] = biological target: T3, Fc-CLEC1 labelled with Alexa Fluor 488; assay: FACS competition: blocks Fc-CLEC1-A488 (10 nM) binding to CLEC-1 ligand on permeabilised Raji cells; % binding cells
Protocol: as §6, §5

| Binder | EC50 [1] [mg/L] | EC50 [2] [mg/L] | EC50 [3] [mg/L] | EC50 (read off the curve) [4] [mg/L] | Kd [5] [µM] | koff [5] [s⁻¹] | kon [5] [M⁻¹ s⁻¹] | IC50 [6] [mg/L] | IC50 (read off the curve) [7] [mg/L] | IC50 [8] [µM] | EC50 [9] [mg/L] | EC50 (read off the curve) [10] [mg/L] | EC50 (read off the curve) [11] [mg/L] | EC50 (read off the curve) [12] [mg/L] | EC50 (read off the curve) [13] [mg/L] | Kd [14] [µM] | IC50 (read off the curve) [15] [µM] |
| --- | --- | --- | --- | --- | --- | --- | --- | --- | --- | --- | --- | --- | --- | --- | --- | --- | --- |
| chimeric anti-CLEC-1A antibody 15E3 (antibody, human IgG4 S228P, kappa, V domains shown, also called 15E3chim; 15E3-VHwt-FcG4m / 15E3-VLwt-CLhk) VH: QVQLQQSGPELVKPGASVKMSCKASGFTFTDYVIAWVKVRTGQGLEWIGEIYPGSGSIYYNEKFKGKATLTADKSSNTAYMQLSSLTSEDSAVYFCASSTVVAFDYWGQGTTLTVSS VL: EIVLTQSPTTLAASPGEKIIITCSDSSSISSNYLHWYQQKPGFSPKLLIYGTSNLASGVPARFSGSGSGTTYSLTIGTMEAEDVATYYCQQGSSIPRTFGGGTKLEIKR | 0.251 | 0.0215 | 0.123 | ~0.02 | 0.108 | 0.00169 | 15700 | 0.779 | ~1 | 0.00867 | – | – | – | – | – | – | – |
| chimeric anti-CLEC-1A antibody 11H11 (antibody, human IgG4 S228P, kappa, V domains shown, also called 11H11chim; 11H11-VHwt-FcG4m / 11H11-VLwt-CLhk) VH: QIHLVQSGPELKKPGETVKISCKASGYTFTNFGMNWVKQAPGKGLKWMGWINTNTGEPTYADDFKGRFAFSLETSASTAYLQINNLKNEDTATYFCARGAPAWFTYWGQGTLVTVSA VL: DIQMTQSPASLSASVGETVTITCRATENIYSYLAWYQQKQGKSPQFLVYNAKTLAEGMPSRFSGSGSGTQFSLKINILQPEDFGTYYCQHHFGTPLTFGAGTKLELKR | 1.12 | – | 1.38 | – | 0.000448 | 0.00019 | 188000 | – | – | 0.00584 | 0.00846 | – | – | – | – | – | – |
| chimeric anti-CLEC-1A antibody 6C5 (antibody, human IgG4 S228P, kappa, V domains shown, also called 6C5chim; 6C5-VHwt-FcG4m / 6C5-VLwt-CLhk) VH: QVQLQQSGPELVKPGASVKMSCKASGYTFTDYVISWVKQKTGQGLEWIGEIYPGSGNTYYNEKFKGKATLTADKSSSTAYIHLSSLTSEDSAVYFCAGGGSSHFDYWGQGTTLTVSS VL: not shown | 0.258 | 0.326 | 0.123 | – | 0.0403 | 0.00179 | 44500 | 0.626 | – | 0.00771 | – | ~0.2 | ~0.3 | ~0.1 | ~0.1 | – | – |
| chimeric anti-CLEC-1A antibody 5D1 (antibody, human IgG4 S228P, kappa, V domains shown, also called 5D1chim; 5D1-VHwt-FcG4m / 5D1-VLwt-CLhk) VH: QVQLKESGPGLVAPSQSLSITCTISGFSLTSYGVHWVRQPPGKGLEWLVVIWSDGSTIYNSALKSRLSISKDNSKSQVFLKMNSLQTDDTAMYYCARHGGYYNYFDYWGQGTTLTVSS VL: DIQMNQSPSSLSASLGDTITITCHASQNINVWLSWYQQKPGNIPKLLIYKASNLHTGVPSRFSGSGSGTGFTLTISSLQPEDIATYYCQQGQSYWTFGGGTKLEIKR | 0.0847 | 0.164 | – | – | 0.0174 | 0.0012 | 68900 | 1.19 | ~0.8 | 0.0137 | – | ~0.06 | ~0.06 | – | – | ~0.01 | ~0.01 |
